The values below are quoted from earlier work in patent US5654276A, “Peptides and compounds that bind to the IL-5 receptor” (Affymax Technologies N.V., priority 1995, dated 1997).

In general, Kd refers to the concentration at which binding is half-saturated.

The series has as its target T1, human IL-5 receptor (Homo sapiens, UniProt Q01344).
T1 construct: host or cells: HL60 subclone induced towards eosinophil differentiation with sodium butyrate (endogenous receptor)
T1 sequence (Q01344 21-420): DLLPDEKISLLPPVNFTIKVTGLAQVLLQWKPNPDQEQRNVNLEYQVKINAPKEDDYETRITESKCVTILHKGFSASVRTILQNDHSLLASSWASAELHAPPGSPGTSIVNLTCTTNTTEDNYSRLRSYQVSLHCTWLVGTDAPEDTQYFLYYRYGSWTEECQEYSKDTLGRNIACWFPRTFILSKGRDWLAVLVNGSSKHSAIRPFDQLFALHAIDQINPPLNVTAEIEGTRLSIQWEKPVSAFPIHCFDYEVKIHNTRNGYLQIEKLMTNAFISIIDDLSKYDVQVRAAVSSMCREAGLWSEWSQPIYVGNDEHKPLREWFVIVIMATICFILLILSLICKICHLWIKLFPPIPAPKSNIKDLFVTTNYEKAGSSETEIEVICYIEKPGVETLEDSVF
T1 sequence (P32927 17-897 partner): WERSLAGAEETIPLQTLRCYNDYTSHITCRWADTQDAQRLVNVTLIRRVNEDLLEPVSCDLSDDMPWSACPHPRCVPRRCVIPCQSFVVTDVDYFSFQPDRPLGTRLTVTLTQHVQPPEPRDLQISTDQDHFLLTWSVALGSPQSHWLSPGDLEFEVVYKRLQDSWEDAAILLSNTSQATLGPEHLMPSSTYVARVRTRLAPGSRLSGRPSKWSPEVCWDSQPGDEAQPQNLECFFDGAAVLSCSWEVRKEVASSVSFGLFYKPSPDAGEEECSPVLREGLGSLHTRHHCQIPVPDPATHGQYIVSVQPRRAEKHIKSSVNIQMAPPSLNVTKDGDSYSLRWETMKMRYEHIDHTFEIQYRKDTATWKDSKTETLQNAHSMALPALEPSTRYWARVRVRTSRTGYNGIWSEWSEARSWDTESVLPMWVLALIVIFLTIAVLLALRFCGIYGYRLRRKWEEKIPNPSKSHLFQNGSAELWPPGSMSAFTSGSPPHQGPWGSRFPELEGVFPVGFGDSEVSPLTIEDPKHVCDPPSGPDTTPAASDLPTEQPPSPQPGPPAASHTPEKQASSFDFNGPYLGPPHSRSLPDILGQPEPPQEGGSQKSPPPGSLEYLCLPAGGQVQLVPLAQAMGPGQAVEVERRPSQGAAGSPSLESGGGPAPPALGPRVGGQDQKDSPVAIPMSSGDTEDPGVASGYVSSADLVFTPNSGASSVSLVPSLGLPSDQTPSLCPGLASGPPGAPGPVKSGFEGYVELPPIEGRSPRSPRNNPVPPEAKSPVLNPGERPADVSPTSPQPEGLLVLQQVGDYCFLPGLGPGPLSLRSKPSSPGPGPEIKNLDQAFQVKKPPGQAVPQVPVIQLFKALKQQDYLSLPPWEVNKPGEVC
To be noted: HL60 subclone, eosinophilic differentiation initiated with sodium butyrate; read-out: Kd of IL-5 binding sites.

Consider “IL-5: lymphokine secreted by T cells and mast cells having biological activities on B cells and eosinophils”, for which the Kd is 0.03 nM.
